Data set [1] has as its target T1, Trm1 M24 D201A (catalytic-dead) (Schizosaccharomyces pombe, UniProt Q9P804 24-548, D201A).
T1 sequence: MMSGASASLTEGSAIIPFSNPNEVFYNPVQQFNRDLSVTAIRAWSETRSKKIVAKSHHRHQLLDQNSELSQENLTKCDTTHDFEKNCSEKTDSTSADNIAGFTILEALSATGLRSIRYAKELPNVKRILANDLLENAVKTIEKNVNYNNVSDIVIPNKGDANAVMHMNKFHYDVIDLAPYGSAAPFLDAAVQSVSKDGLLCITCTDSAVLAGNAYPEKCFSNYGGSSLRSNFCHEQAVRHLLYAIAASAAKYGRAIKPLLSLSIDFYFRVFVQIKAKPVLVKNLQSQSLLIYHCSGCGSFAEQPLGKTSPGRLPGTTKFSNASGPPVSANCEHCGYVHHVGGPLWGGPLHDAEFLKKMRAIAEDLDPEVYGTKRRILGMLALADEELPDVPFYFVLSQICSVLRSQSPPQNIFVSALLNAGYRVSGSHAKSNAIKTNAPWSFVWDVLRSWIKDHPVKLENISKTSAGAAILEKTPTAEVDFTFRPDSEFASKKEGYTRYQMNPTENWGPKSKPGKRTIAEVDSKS
Briefly: EMSA; affinity comparable to WT; Kd values not in material; no SAM listed; EMSA: 20 mM Tris-HCl pH 7.6, 100 mM KCl, 0.2 mM EDTA, 1 mM DTT; 32 °C 20 min, ice 2 min; 8% native gel at 4 °C. The conditions noted are these: protein: recombinant; label: 32P (alpha-ATP, internal); tRNA fold, single strand. (In general: Mobility shift assays separate free from complexed probe on a gel.)

Data set [2] concerns the target T2, Trm1 M24 (nuclear isoform, WT) (Schizosaccharomyces pombe, UniProt Q9P804 24-548).
T2 sequence: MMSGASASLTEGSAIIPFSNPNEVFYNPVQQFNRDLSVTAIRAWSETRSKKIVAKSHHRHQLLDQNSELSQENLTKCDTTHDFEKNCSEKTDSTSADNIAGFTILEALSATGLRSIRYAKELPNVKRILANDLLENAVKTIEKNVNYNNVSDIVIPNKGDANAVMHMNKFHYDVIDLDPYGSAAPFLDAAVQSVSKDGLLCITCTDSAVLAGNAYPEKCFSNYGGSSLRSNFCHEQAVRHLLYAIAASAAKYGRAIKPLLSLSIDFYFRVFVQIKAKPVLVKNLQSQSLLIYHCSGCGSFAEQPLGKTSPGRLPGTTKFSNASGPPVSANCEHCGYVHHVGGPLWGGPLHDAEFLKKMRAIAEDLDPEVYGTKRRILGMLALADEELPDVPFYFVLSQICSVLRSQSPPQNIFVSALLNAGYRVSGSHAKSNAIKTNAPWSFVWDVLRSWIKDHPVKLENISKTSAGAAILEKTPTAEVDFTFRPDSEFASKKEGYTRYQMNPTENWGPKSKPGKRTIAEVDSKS
Briefly: EMSA; replicate 1 of 3; Hill coefficient 7.061; no SAM listed; EMSA: 20 mM Tris-HCl pH 7.6, 100 mM KCl, 0.2 mM EDTA, 1 mM DTT; 32 °C 20 min, ice 2 min; 8% native gel at 4 °C. Conditions: protein: recombinant; label: 32P (alpha-ATP, internal); tRNA fold, single strand.

B1: pre-tRNA SerUGA (structured_RNA)
RNA: GUCACUAUGUCCGAGUGGUUAAGGAGUUAGACUUGAAUCCUGUCUAGUCAUCUAAUGGGCUUUGCCCGCGCAGGUUCAAAUCCUGCUGGUGACGGUAUUU
Turning to B1, in data set [1], the binding result was “binds”. Further, in data set [2], the Kd (as a rule, the constant that tells how readily two partners part at equilibrium) is 576 nM.

The values above are taken from paper PMC10652106, “Crosstalk between the tRNA methyltransferase Trm1 and RNA chaperone La influences eukaryotic tRNA maturation”.
